Source: patent US5496831, “Inhibition of insulin-induced adiposis” (The General Hospital Corporation)

Tests used:
[1] = molecular target: T1, GST-RBAP-1 (E2F-1) (UniProt Q01094 Q01094:1-437); assay: competition; competitor vs labelled IRE-A; conditions: tags: GST fusion, bacterial expression, glutathione Sepharose purified; label: 32P when used as probe
Method: (§1) FIG. 4C is an electrophoretic mobility shift assay showing IRP-A and GST-RBAP-1 complexes with IRE-A DNA. GST-RBAP-1 (lanes 1–3) or nuclear proteins isolated from fasted-refed liver nuclear extract (lanes 4–6) were incubated with ^32P-labelled IRE-A DNA in the presence of: lanes 1 and 4, mutant IRE-A DNA (GC→TA); lanes 2 and 5, wild-type E2 DNA; and, lanes 3 and 6, mutant E2 DNA (GC→TA) as described above.
(§2) The EMSA procedure has been described previously (Nasrin, et al., Proc. Natl. Acad. Sci. USA, 87:5273–5277, 1990). Nuclear extract or GST-RBAP-1 was incubated with 0.25–0.5 ng of ^32P-labelled oligo in 20 μl of binding buffer containing 10 mM HEPES (pH 7.9), 0.1 mM EDTA, 10 mM MgCl_2, 5 mM KCl, 150 mM NaCl, 25 mM DTT and 250 ng of poly(dI)poly(dC). The reaction products were separated at 4° C. in a 4.5% polyacrylamide gel run in 50 mM Tris-HCL (pH 8.5), 380 mM glycine and 2 mM EDTA. The gel was dried and exposed to film. The sequences of the oligonucleotides used to characterize IRE-A-like and E2F-like DNA binding activities are shown. Cognate E2F sites include E2F wild-type, 5'-[…]-[…]-3' (SEQ ID NO: 4); E2F mutant, 5'-ATT-[…]-3' (SEQ ID NO: 5); DRTF wild-type, 5'-[…]-3' (SEQ ID NO: 6). The GAPDH IRE-A used for gel shifts included nucleotides −487 to −408 of the promoter (Nasrin, et al., Proc. Natl. Acad. Sci. USA, 87:5273–5277, 1990). […]

[2] = molecular target: E2F-1 (UniProt Q01094 Q01094:1-437); assay: cell_activity; CAT stimulation by CMV-E2F in L6 muscle cells; tetramer on minimal GAPDH promoter; conditions: tags: CMV-E2F expression plasmid
E2F-1, sequence (Q01094 whole entry, the tested form may be a part, one chain of several): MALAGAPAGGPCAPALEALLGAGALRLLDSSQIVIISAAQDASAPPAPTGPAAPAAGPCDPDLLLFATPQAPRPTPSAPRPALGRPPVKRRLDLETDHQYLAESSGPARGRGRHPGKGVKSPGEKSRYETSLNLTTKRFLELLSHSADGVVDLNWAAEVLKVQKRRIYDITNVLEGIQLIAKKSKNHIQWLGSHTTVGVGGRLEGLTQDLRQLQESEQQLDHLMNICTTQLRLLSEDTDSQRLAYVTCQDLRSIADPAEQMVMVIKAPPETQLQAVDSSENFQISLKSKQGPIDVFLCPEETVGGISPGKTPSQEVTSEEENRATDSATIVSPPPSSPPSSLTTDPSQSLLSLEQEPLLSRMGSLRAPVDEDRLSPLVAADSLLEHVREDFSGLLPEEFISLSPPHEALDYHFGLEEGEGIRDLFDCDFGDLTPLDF

[3] = molecular target: T1, GST-RBAP-1 (E2F-1); assay: competition; mutant competitor vs labelled IRE-A; conditions: tags: GST fusion, bacterial expression, glutathione Sepharose purified
Method: as §1, §2

T1 sequence (Q01094 whole entry, the tested form may be a part, one chain of several): as above

B1: E2 (cognate E2F site) wild-type (dsDNA)
DNA 1: ATTTAAGTTTCGCGCCCTTTCTCAA
DNA 2: TTGAGAAAGGGCGCGAAACTTAAAT
Does B1 bind [1]?
Result: binds

B2: IRE-A minimal motif tetramer-CAT (dsDNA)
DNA 1: AAGTTCCCCAACTTTCCCGCCTCTCAGCCTTTGAAAG
DNA 2: CTTTCAAAGGCTGAGAGGCGGGAAAGTTGGGGAACTT
For B2, which activity [2] is on record?
Its activity is 7 fold.

B3: E2 mutant (GC to TA) (dsDNA)
DNA 1: ATTTAAGTTTCGATCCCTTTCTCAA
DNA 2: TTGAGAAAGGGATCGAAACTTAAAT
Does B3 bind [3]?
Result: no binding
